Source: article PMC7788595

Molecular target: sfGFP^204SCO (Aequorea victoria) [GFP: P42212]
Experiment: FRET or BRET; steady state emission of the covalently SPAAC-linked GFVen^204 dimer, excitation at 450 nm; relative efficiency from donor and acceptor intensities (Equation 3) after deconvolution

- FRET efficiency allowing for variation in quantum yield: 85 to 91%
- relative FRET efficiency: 87%
Substance: Venus^204azF (from UniProt P42212 2-238) (natural protein)
